In patent US20170247418A1:
Like-named read-outs stand apart in the source and are kept apart here.

Experiments:
[1] = molecular target: biotinylated eboIZN39IQ; assay: SPR (ProteOn XPR36), eboC24 flowed over biotin-eboIZN39IQ, pH 5.8
[2] = molecular target: biotinylated eboIZN39IQ

IEPHDWTKNITDKIDQIIHDFVDK (modifications not checked) [eboC24] gave a Kd [1] of 300 nM and a Kd [2] of 310 nM.
